Numbered stars: 1 amine (or outer) side, 2 acyl side, 3 side chain; on linkers, the order of the positions; unused ones are H or OH. Bridge positions count the residues as written; N and C are the ends. Square brackets hold non-standard residues; d marks the D form. Ends that are not written are not given here. TBMB = c1c(C[*:1])cc(C[*:3])cc1C[*:2]; Sar = CNCC(=O)O
How the values were obtained:
human plasma Kallikrein [1] = target: T1, human plasma Kallikrein (human, UniProt P03952 20-638); test: enzyme inhibition
T1 construct: also called hPK; human PK
Protocol: (§1) Functional enzyme assays were conducted in 10 mM Tris HCl, 150 mM NaCl, 10 mM MgCl2, 1 mM CaCl₂) and 1 mg/mL BSA (all Sigma UK) pH7.4 at 25° C. in solid black 96 well plates. […] Release of AMC was measured using a Pherastar FS (BMG Labtech), excitation 360 nm, emission 460 nm. The rate of the linear phase of the reaction, typically 5 to 45 minutes, was calculated in MARS data analysis software (BMG labtech). The rate was then used to calculate the IC50 and Ki in Prism (GraphPad).

human plasma Kallikrein [2] = target: T1, human plasma Kallikrein; test: phage binding assay
Protocol: Library transformant colonies, or selection output colonies, were picked and grown as individual cultures in 2TY broth containing selective antibiotic. The picked colonies were DNA-sequenced using a QIAgen PyroMark Q96 DNA sequencer to reveal the amino-acid substitution present in each clone, and were assayed for human plasma Kallikrein binding as follows. The phage-containing supernatant was harvested from the culture and phage were cyclised with tris bromomethyl benzene (TBMB) based on the methods of Heinis et al (Nature Chemical Biology vol. 5 pp 502-507 (2009)). The purified phage from this process were assayed for binding to biotinylated human plasma Kallikrein using a homogeneous plate-based binding assay; assay read-out measured on a BMG Labtech Pherastar FS plate reader. The quantitative binding data from duplicate assay samples was averaged (mean) and expressed as signal:background. […] The assay data was correlated with the peptide sequences.
Selections against human plasma Kallikrein were performed at a variety of stringencies (see Phage selections' in Methods above). All output sequences were identified and analysed for target binding (see ‘Randomisation of peptide domains—Assay of binding of individual clones’ in Methods above). Table 17 lists each unique sequence, its relative abundance in the selection output (frequency), and a rank number according to target binding strength.

human plasma Kallikrein [3] = target: T1, human plasma Kallikrein; test: phage binding assay; remark: listed apart in the source
rat plasma Kallikrein = target: T2, rat plasma Kallikrein (rat, UniProt P14272 391-638, limits assumed); test: enzyme inhibition
T2 construct: domain: catalytic domain; also called rPK; rat PK
Protocol: as §1

T2 sequence (P14272 391-638 limits assumed): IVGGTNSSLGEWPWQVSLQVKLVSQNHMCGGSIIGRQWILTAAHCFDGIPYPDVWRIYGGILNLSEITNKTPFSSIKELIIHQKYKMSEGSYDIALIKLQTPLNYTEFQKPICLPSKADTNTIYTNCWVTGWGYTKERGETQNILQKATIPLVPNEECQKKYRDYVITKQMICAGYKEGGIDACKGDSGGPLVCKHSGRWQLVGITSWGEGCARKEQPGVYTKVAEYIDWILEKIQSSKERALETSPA
T1 sequence (P03952 20-638 limits assumed): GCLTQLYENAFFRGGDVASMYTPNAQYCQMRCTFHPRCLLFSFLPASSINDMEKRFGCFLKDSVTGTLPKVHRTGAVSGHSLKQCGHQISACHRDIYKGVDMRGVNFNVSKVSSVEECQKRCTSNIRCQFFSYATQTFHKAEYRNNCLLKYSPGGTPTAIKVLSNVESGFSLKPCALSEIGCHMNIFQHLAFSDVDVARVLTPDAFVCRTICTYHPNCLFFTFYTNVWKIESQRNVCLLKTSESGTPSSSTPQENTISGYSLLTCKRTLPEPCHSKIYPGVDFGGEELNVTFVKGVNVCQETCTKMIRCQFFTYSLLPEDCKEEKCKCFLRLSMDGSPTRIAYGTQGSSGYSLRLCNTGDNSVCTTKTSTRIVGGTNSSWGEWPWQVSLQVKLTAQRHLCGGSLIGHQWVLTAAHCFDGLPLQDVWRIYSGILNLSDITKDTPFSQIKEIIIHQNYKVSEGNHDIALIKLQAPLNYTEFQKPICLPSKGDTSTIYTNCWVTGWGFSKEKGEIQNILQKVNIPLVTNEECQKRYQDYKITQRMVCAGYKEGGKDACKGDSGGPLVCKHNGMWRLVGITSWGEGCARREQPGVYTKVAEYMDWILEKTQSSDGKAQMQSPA

Binder	Ki (human plasma Kallikrein [1]) [nM]	RANK (Kallikrein binding) (human plasma Kallikrein [2])	further results
ACNWPYRCLHTDLCA (linker 2-8-14 via TBMB; not fully specified (N-terminus, C-terminus)) [06-157]	3.3		
AC[Sar]WPARC[Sar]HQDLCA (linker 2-8-14 via TBMB; not fully specified (N-terminus, C-terminus), also called AC(N-MeG)WPARC(N-MeG)HQDLCA) [06-34-03 - N-MeGly1,6]	24.8		
ACTYPYKCLHQNLCA (linker 2-8-14 via TBMB) [2A10]	4.98		
ACAWPAKCLTRELCA (linker 2-8-14 via TBMB; not fully specified (N-terminus, C-terminus)) [1B1]	8.1		
ACRWPARCTHQNYCA (linker 2-8-14 via TBMB; not fully specified (N-terminus, C-terminus)) [06-54 (2A2) T]	0.49		
ACADPWACLFRRPCA (linker 2-8-14 via TBMB; not fully specified (N-terminus, C-terminus)) [06-63 T]	1280		
ACTWPARCTHQNWCA (linker 2-8-14 via TBMB; not fully specified (N-terminus, C-terminus)) [06-09]	1.2		
ACTWPARCTMQNWCA (linker 2-8-14 via TBMB; not fully specified (N-terminus, C-terminus)) [06-A2*]	181		
ACSWPYRCLHQDYCA (linker 2-8-14 via TBMB; not fully specified (N-terminus, C-terminus)) [06-61]	5.8		
CSWPARCTHQDLC (linker 1-7-13 via TBMB, on phage)		1	BINDING ASSAY SIGNAL (human plasma Kallikrein [3]): 110
CSWWARCTHQDLC (linker 1-7-13 via TBMB, on phage)		27	
CSWLARCTHQDLC (linker 1-7-13 via TBMB, on phage)		4	
CSWPSRCTHQDLC (linker 1-7-13 via TBMB, on phage)		2	
CSWPYKCTHQDLC (linker 1-7-13 via TBMB, on phage)		28	
CSIPFKCTHQDLC (linker 1-7-13 via TBMB (inferred), on phage)		32	
CSYPYRCTHQDLC (linker 1-7-13 via TBMB, on phage)		26	
CSWSYRCTHQDLC (linker 1-7-13 via TBMB, on phage)		36	
CSWHARCTHQDLC (linker 1-7-13 via TBMB, on phage)		24	
CSMPYRCTHQDLC (linker 1-7-13 via TBMB, on phage)		31	
CSHPFRCTHQDLC (linker 1-7-13 via TBMB (inferred), on phage)		9	
CSYPFRCTHQDLC (linker 1-7-13 via TBMB, on phage)		21	

Binder	Ki (human plasma Kallikrein [1]) [nM]	RANK (Kallikrein binding) (human plasma Kallikrein [2])	further results
CSLPIRCTHQDLC (linker 1-7-13 via TBMB, on phage)		30	
CSWAARCTHQDLC (linker 1-7-13 via TBMB, on phage)		7	
CSHPYRCTHQDLC (linker 1-7-13 via TBMB (inferred), on phage)		8	
CSFSYKCTHQDLC (linker 1-7-13 via TBMB (inferred), on phage)		35	
CSWPFRCTHQDLC (linker 1-7-13 via TBMB, on phage)		14	
CSYPIRCTHQDLC (linker 1-7-13 via TBMB, on phage)		18	
CSWPYRCTHQDLC (linker 1-7-13 via TBMB, on phage)		10	
CSWSARCTHQDLC (linker 1-7-13 via TBMB, on phage)		19	
CSWQARCTHQDLC (linker 1-7-13 via TBMB, on phage)		42	
CSYPWRCTHQDLC (linker 1-7-13 via TBMB, on phage)		33	
ACSWPARCVHQDLCA (linker 2-8-14 via TBMB; not fully specified (N-terminus, C-terminus)) [06-34-01]			IC50 (rat plasma Kallikrein): 6.12 nM; IC50 (human plasma Kallikrein [1]): 0.15 nM
ACSWPARCTHQDLCA (linker 2-8-14 via TBMB; not fully specified (N-terminus, C-terminus)) [06-34-03 (01 + 02)]			IC50 (rat plasma Kallikrein): 0.87 nM; IC50 (human plasma Kallikrein [1]): 0.082 nM
ACSWPARCNHQDLCA (linker 2-8-14 via TBMB; not fully specified (N-terminus, C-terminus)) [06-57]	0.4		
ACRWPARCTHQDLCA (linker 2-8-14 via TBMB; not fully specified (N-terminus, C-terminus)) [06-34-02]			IC50 (rat plasma Kallikrein): 1.09 nM; IC50 (human plasma Kallikrein [1]): 0.16 nM
ACGGYNNCRAFSYCA (linker 2-8-14 via TBMB; not fully specified (N-terminus, C-terminus)) [1F7]	2.2		
CSHRRWCTHQDLC (linker 1-7-13 via TBMB (inferred), on phage)		41	
CSLFDHCTHQDLC (linker 1-7-13 via TBMB, on phage)		40	
CSQVVGCTHQDLC (linker 1-7-13 via TBMB, on phage)		38	
ACGVPYRCTHQEMCA (linker 2-8-14 via TBMB; not fully specified (N-terminus, C-terminus)) [06-64 T]	6.9		
ACAWPARCAHQDLCA (linker 2-8-14 via TBMB; not fully specified (N-terminus, C-terminus), also called R1A/V6A) [06-34-03 - Ala1,6]	0.147		
ACRWPARCLTTSLCA (linker 2-8-14 via TBMB; not fully specified (N-terminus, C-terminus)) [06-59]	0.5		

Reference: patent US20180362585A1 (Bicycle, published 2018)
